One substance from paper PMC12697964 can be followed below.

A word on the stoichiometry N: it is a count of units in the complex or per binding partner.

For the assay, the target named is N-terminal region deleted seYdjB-like protein (amino acid from 35 to 162) (Salmonella enterica). Briefly: SEC-MALS; Superdex 75 10/300 GL, SEC buffer (20 mM Tris-HCl pH 8.0, 150 mM NaCl), 0.6 mL/min; three-angle light scattering and refractive index detectors; BSA as reference. In general terms: Size exclusion chromatography separates by hydrodynamic size, large species first.

Regarding “N-terminal region deleted seYdjB-like protein (amino acid from 35 to 162) (domain or fragment)”, the stoichiometry N was 2.
